In IntAct's records for PubMed 21423214:

B1: Tyrosine-protein kinase JAK2 (Mus musculus), Q62120 (parent)
chain: MGMACLTMTEMEATSTSPVHQNGDIPGSANSVKQIEPVLQVYLYHSLGQAEGEYLKFPSGEYVAEEICVAASKACGITPVYHNMFALMSETERIWYPPNHVFHIDESTRHDILYRIRFYFPHWYCSGSSRTYRYGVSRGAEAPLLDDFVMSYLFAQWRHDFVHGWIKVPVTHETQEECLGMAVLDMMRIAKEKDQTPLAVYNSVSYKTFLPKCVRAKIQDYHILTRKRIRYRFRRFIQQFSQCKATARNLKLKYLINLETLQSAFYTEQFEVKESARGPSGEEIFATIIITGNGGIQWSRGKHKESETLTEQDVQLYCDFPDIIDVSIKQANQECSNESRIVTVHKQDGKVLEIELSSLKEALSFVSLIDGYYRLTADAHHYLCKEVAPPAVLENIHSNCHGPISMDFAISKLKKAGNQTGLYVLRCSPKDFNKYFLTFAVERENVIEYKHCLITKNENGEYNLSGTKRNFSNLKDLLNCYQMETVRSDSIIFQFTKCCPPKPKDKSNLLVFRTNGISDVQISPTLQRHNNVNQMVFHKIRNEDLIFNESLGQGTFTKIFKGVRREVGDYGQLHKTEVLLKVLDKAHRNYSESFFEAASMMSQLSHKHLVLNYGVCVCGEENILVQEFVKFGSLDTYLKKNKNSINILWKLGVAKQLAWAMHFLEEKSLIHGNVCAKNILLIREEDRRTGNPPFIKLSDPGISITVLPKDILQERIPWVPPECIENPKNLNLATDKWSFGTTLWEICSGGDKPLSALDSQRKLQFYEDKHQLPAPKWTELANLINNCMDYEPDFRPAFRAVIRDLNSLFTPDYELLTENDMLPNMRIGALGFSGAFEDRDPTQFEERHLKFLQQLGKGNFGSVEMCRYDPLQDNTGEVVAVKKLQHSTEEHLRDFEREIEILKSLQHDNIVKYKGVCYSAGRRNLRLIMEYLPYGSLRDYLQKHKERIDHKKLLQYTSQICKGMEYLGTKRYIHRDLATRNILVENENRVKIGDFGLTKVLPQDKEYYKVKEPGESPIFWYAPESLTESKFSVASDVWSFGVVLYELFTYIEKSKSPPVEFMRMIGNDKQGQMIVFHLIELLKSNGRLPRPEGCPDEIYVIMTECWNNNVSQRPSFRDLSLRVDQIRDSIAA

Variants of: B1
Conditions: with cdn1b_human CDKN1B

Row | Variant | effect of a mutation on the interaction
1 | V617F | increasing interaction strength
